Measurements reported in the Human Domainome abundance scans (Beltran et al. 2025).
± gives the uncertainty stated by the source.

B1: Receptor-interacting serine/threonine-protein kinase 2, residues 438 to 518; numbered along this chain, O43353 (parent)
chain: QWIQSKREDIVNQMTEACLNQSLDALLSRDLIMKEDYELVSTKPTRTSKVRQLLDTTDIQGEEFAKVIVQKLKDNKQMGLQ

Variants of: B1
Experiment: abundance fitness (aPCA) (normalised: wild type 0, dead -1); higher = more abundant; growth selection in yeast, the domain comes from the species named
Settings: Homo sapiens

Variant	abundance fitness
QWIQSKREDIVNQMTEACLNQSLDALLSRDLIMKEDYELVSTKPTRTSKVRQLLDTTDIQGDEFAKVIVQKLKDNKQMGLQ	-0.648 ± 0.23
QWIQSKREDIVNQMTEACLNQSLDALLSRDLIMKEDYELVSTKPTRTSKVRQLLDTTDIQGFEFAKVIVQKLKDNKQMGLQ	-0.741 ± 0.25
QWIQSKREDIVNQMTEACLNQSLDALLSRDLIMKEDYELVSTKPTRTSKVRQLLDTTDIQGGEFAKVIVQKLKDNKQMGLQ	-0.537 ± 0.069
QWIQSKREDIVNQMTEACLNQSLDALLSRDLIMKEDYELVSTKPTRTSKVRQLLDTTDIQGHEFAKVIVQKLKDNKQMGLQ	-0.678 ± 0.13
QWIQSKREDIVNQMTEACLNQSLDALLSRDLIMKEDYELVSTKPTRTSKVRQLLDTTDIQGIEFAKVIVQKLKDNKQMGLQ	-0.912 ± 0.31
QWIQSKREDIVNQMTEACLNQSLDALLSRDLIMKEDYELVSTKPTRTSKVRQLLDTTDIQGKEFAKVIVQKLKDNKQMGLQ	-0.798 ± 0.16
QWIQSKREDIVNQMTEACLNQSLDALLSRDLIMKEDYELVSTKPTRTSKVRQLLDTTDIQGLEFAKVIVQKLKDNKQMGLQ	-0.808 ± 0.094
QWIQSKREDIVNQMTEACLNQSLDALLSRDLIMKEDYELVSTKPTRTSKVRQLLDTTDIQGMEFAKVIVQKLKDNKQMGLQ	-0.545 ± 0.1
QWIQSKREDIVNQMTEACLNQSLDALLSRDLIMKEDYELVSTKPTRTSKVRQLLDTTDIQGPEFAKVIVQKLKDNKQMGLQ	-0.493 ± 0.049
QWIQSKREDIVNQMTEACLNQSLDALLSRDLIMKEDYELVSTKPTRTSKVRQLLDTTDIQGQEFAKVIVQKLKDNKQMGLQ	-0.943 ± 0.15
QWIQSKREDIVNQMTEACLNQSLDALLSRDLIMKEDYELVSTKPTRTSKVRQLLDTTDIQGSEFAKVIVQKLKDNKQMGLQ	-0.627 ± 0.055
QWIQSKREDIVNQMTEACLNQSLDALLSRDLIMKEDYELVSTKPTRTSKVRQLLDTTDIQGTEFAKVIVQKLKDNKQMGLQ	-0.629 ± 0.081
QWIQSKREDIVNQMTEACLNQSLDALLSRDLIMKEDYELVSTKPTRTSKVRQLLDTTDIQGVEFAKVIVQKLKDNKQMGLQ	-0.853 ± 0.092
QWIQSKREDIVNQMTEACLNQSLDALLSRDLIMKEDYELVSTKPTRTSKVRQLLDTTDIQGWEFAKVIVQKLKDNKQMGLQ	-1.32 ± 0.3
QWIQSKREDIVNQMTEACLNQSLDALLSRDLIMKEDYELVSTKPTRTSKVRQLLDTTDIQGYEFAKVIVQKLKDNKQMGLQ	-0.913 ± 0.25
QWIQSKREDIVNQMTEACLNQSLDALLSRDLIMKEDYELVSTKPTRTSKVRQLLDTTDIQGECFAKVIVQKLKDNKQMGLQ	-0.527 ± 0.12
QWIQSKREDIVNQMTEACLNQSLDALLSRDLIMKEDYELVSTKPTRTSKVRQLLDTTDIQGEDFAKVIVQKLKDNKQMGLQ	-0.3 ± 0.22
QWIQSKREDIVNQMTEACLNQSLDALLSRDLIMKEDYELVSTKPTRTSKVRQLLDTTDIQGEFFAKVIVQKLKDNKQMGLQ	-0.972 ± 0.18
QWIQSKREDIVNQMTEACLNQSLDALLSRDLIMKEDYELVSTKPTRTSKVRQLLDTTDIQGEGFAKVIVQKLKDNKQMGLQ	-0.475 ± 0.08
QWIQSKREDIVNQMTEACLNQSLDALLSRDLIMKEDYELVSTKPTRTSKVRQLLDTTDIQGEHFAKVIVQKLKDNKQMGLQ	-0.734 ± 0.18
QWIQSKREDIVNQMTEACLNQSLDALLSRDLIMKEDYELVSTKPTRTSKVRQLLDTTDIQGEIFAKVIVQKLKDNKQMGLQ	-0.538 ± 0.14
QWIQSKREDIVNQMTEACLNQSLDALLSRDLIMKEDYELVSTKPTRTSKVRQLLDTTDIQGEKFAKVIVQKLKDNKQMGLQ	-0.441 ± 0.18
QWIQSKREDIVNQMTEACLNQSLDALLSRDLIMKEDYELVSTKPTRTSKVRQLLDTTDIQGELFAKVIVQKLKDNKQMGLQ	-0.684 ± 0.087

Variant	abundance fitness
QWIQSKREDIVNQMTEACLNQSLDALLSRDLIMKEDYELVSTKPTRTSKVRQLLDTTDIQGENFAKVIVQKLKDNKQMGLQ	-0.646 ± 0.19
QWIQSKREDIVNQMTEACLNQSLDALLSRDLIMKEDYELVSTKPTRTSKVRQLLDTTDIQGEPFAKVIVQKLKDNKQMGLQ	-0.432 ± 0.068
QWIQSKREDIVNQMTEACLNQSLDALLSRDLIMKEDYELVSTKPTRTSKVRQLLDTTDIQGEQFAKVIVQKLKDNKQMGLQ	-0.485 ± 0.28
QWIQSKREDIVNQMTEACLNQSLDALLSRDLIMKEDYELVSTKPTRTSKVRQLLDTTDIQGERFAKVIVQKLKDNKQMGLQ	-0.413 ± 0.062
QWIQSKREDIVNQMTEACLNQSLDALLSRDLIMKEDYELVSTKPTRTSKVRQLLDTTDIQGETFAKVIVQKLKDNKQMGLQ	-0.362 ± 0.083
QWIQSKREDIVNQMTEACLNQSLDALLSRDLIMKEDYELVSTKPTRTSKVRQLLDTTDIQGEVFAKVIVQKLKDNKQMGLQ	-0.592 ± 0.084
QWIQSKREDIVNQMTEACLNQSLDALLSRDLIMKEDYELVSTKPTRTSKVRQLLDTTDIQGEYFAKVIVQKLKDNKQMGLQ	-0.839 ± 0.26
QWIQSKREDIVNQMTEACLNQSLDALLSRDLIMKEDYELVSTKPTRTSKVRQLLDTTDIQGEEAAKVIVQKLKDNKQMGLQ	0.131 ± 0.058
QWIQSKREDIVNQMTEACLNQSLDALLSRDLIMKEDYELVSTKPTRTSKVRQLLDTTDIQGEECAKVIVQKLKDNKQMGLQ	0.112 ± 0.13
QWIQSKREDIVNQMTEACLNQSLDALLSRDLIMKEDYELVSTKPTRTSKVRQLLDTTDIQGEEDAKVIVQKLKDNKQMGLQ	-0.17 ± 0.18
QWIQSKREDIVNQMTEACLNQSLDALLSRDLIMKEDYELVSTKPTRTSKVRQLLDTTDIQGEEEAKVIVQKLKDNKQMGLQ	-0.123 ± 0.11
QWIQSKREDIVNQMTEACLNQSLDALLSRDLIMKEDYELVSTKPTRTSKVRQLLDTTDIQGEEGAKVIVQKLKDNKQMGLQ	-0.257 ± 0.054
QWIQSKREDIVNQMTEACLNQSLDALLSRDLIMKEDYELVSTKPTRTSKVRQLLDTTDIQGEEIAKVIVQKLKDNKQMGLQ	-0.269 ± 0.23
QWIQSKREDIVNQMTEACLNQSLDALLSRDLIMKEDYELVSTKPTRTSKVRQLLDTTDIQGEEKAKVIVQKLKDNKQMGLQ	-0.566 ± 0.19
QWIQSKREDIVNQMTEACLNQSLDALLSRDLIMKEDYELVSTKPTRTSKVRQLLDTTDIQGEELAKVIVQKLKDNKQMGLQ	-0.295 ± 0.054
QWIQSKREDIVNQMTEACLNQSLDALLSRDLIMKEDYELVSTKPTRTSKVRQLLDTTDIQGEEMAKVIVQKLKDNKQMGLQ	-0.047 ± 0.11
QWIQSKREDIVNQMTEACLNQSLDALLSRDLIMKEDYELVSTKPTRTSKVRQLLDTTDIQGEEPAKVIVQKLKDNKQMGLQ	-0.248 ± 0.065
QWIQSKREDIVNQMTEACLNQSLDALLSRDLIMKEDYELVSTKPTRTSKVRQLLDTTDIQGEEQAKVIVQKLKDNKQMGLQ	-0.156 ± 0.12
QWIQSKREDIVNQMTEACLNQSLDALLSRDLIMKEDYELVSTKPTRTSKVRQLLDTTDIQGEERAKVIVQKLKDNKQMGLQ	-0.475 ± 0.042
QWIQSKREDIVNQMTEACLNQSLDALLSRDLIMKEDYELVSTKPTRTSKVRQLLDTTDIQGEESAKVIVQKLKDNKQMGLQ	-0.212 ± 0.053
QWIQSKREDIVNQMTEACLNQSLDALLSRDLIMKEDYELVSTKPTRTSKVRQLLDTTDIQGEETAKVIVQKLKDNKQMGLQ	-0.142 ± 0.079
QWIQSKREDIVNQMTEACLNQSLDALLSRDLIMKEDYELVSTKPTRTSKVRQLLDTTDIQGEEVAKVIVQKLKDNKQMGLQ	-0.236 ± 0.058
QWIQSKREDIVNQMTEACLNQSLDALLSRDLIMKEDYELVSTKPTRTSKVRQLLDTTDIQGEEWAKVIVQKLKDNKQMGLQ	-0.384 ± 0.082

Variant	abundance fitness
QWIQSKREDIVNQMTEACLNQSLDALLSRDLIMKEDYELVSTKPTRTSKVRQLLDTTDIQGEEYAKVIVQKLKDNKQMGLQ	-0.448 ± 0.17
QWIQSKREDIVNQMTEACLNQSLDALLSRDLIMKEDYELVSTKPTRTSKVRQLLDTTDIQGEEFCKVIVQKLKDNKQMGLQ	-0.624 ± 0.12
QWIQSKREDIVNQMTEACLNQSLDALLSRDLIMKEDYELVSTKPTRTSKVRQLLDTTDIQGEEFDKVIVQKLKDNKQMGLQ	-0.569 ± 0.13
QWIQSKREDIVNQMTEACLNQSLDALLSRDLIMKEDYELVSTKPTRTSKVRQLLDTTDIQGEEFEKVIVQKLKDNKQMGLQ	-0.456 ± 0.15
QWIQSKREDIVNQMTEACLNQSLDALLSRDLIMKEDYELVSTKPTRTSKVRQLLDTTDIQGEEFFKVIVQKLKDNKQMGLQ	-1.12 ± 0.23
QWIQSKREDIVNQMTEACLNQSLDALLSRDLIMKEDYELVSTKPTRTSKVRQLLDTTDIQGEEFGKVIVQKLKDNKQMGLQ	-0.6 ± 0.058
QWIQSKREDIVNQMTEACLNQSLDALLSRDLIMKEDYELVSTKPTRTSKVRQLLDTTDIQGEEFHKVIVQKLKDNKQMGLQ	-0.44 ± 0.081
QWIQSKREDIVNQMTEACLNQSLDALLSRDLIMKEDYELVSTKPTRTSKVRQLLDTTDIQGEEFKKVIVQKLKDNKQMGLQ	-0.708 ± 0.17
QWIQSKREDIVNQMTEACLNQSLDALLSRDLIMKEDYELVSTKPTRTSKVRQLLDTTDIQGEEFLKVIVQKLKDNKQMGLQ	-0.949 ± 0.097
QWIQSKREDIVNQMTEACLNQSLDALLSRDLIMKEDYELVSTKPTRTSKVRQLLDTTDIQGEEFNKVIVQKLKDNKQMGLQ	-0.389 ± 0.18
QWIQSKREDIVNQMTEACLNQSLDALLSRDLIMKEDYELVSTKPTRTSKVRQLLDTTDIQGEEFPKVIVQKLKDNKQMGLQ	-0.554 ± 0.062
QWIQSKREDIVNQMTEACLNQSLDALLSRDLIMKEDYELVSTKPTRTSKVRQLLDTTDIQGEEFQKVIVQKLKDNKQMGLQ	-0.743 ± 0.16
QWIQSKREDIVNQMTEACLNQSLDALLSRDLIMKEDYELVSTKPTRTSKVRQLLDTTDIQGEEFRKVIVQKLKDNKQMGLQ	-0.649 ± 0.077
QWIQSKREDIVNQMTEACLNQSLDALLSRDLIMKEDYELVSTKPTRTSKVRQLLDTTDIQGEEFSKVIVQKLKDNKQMGLQ	-0.457 ± 0.062
QWIQSKREDIVNQMTEACLNQSLDALLSRDLIMKEDYELVSTKPTRTSKVRQLLDTTDIQGEEFTKVIVQKLKDNKQMGLQ	-0.85 ± 0.12
QWIQSKREDIVNQMTEACLNQSLDALLSRDLIMKEDYELVSTKPTRTSKVRQLLDTTDIQGEEFVKVIVQKLKDNKQMGLQ	-0.933 ± 0.1
QWIQSKREDIVNQMTEACLNQSLDALLSRDLIMKEDYELVSTKPTRTSKVRQLLDTTDIQGEEFYKVIVQKLKDNKQMGLQ	-0.691 ± 0.12
QWIQSKREDIVNQMTEACLNQSLDALLSRDLIMKEDYELVSTKPTRTSKVRQLLDTTDIQGEEFAAVIVQKLKDNKQMGLQ	-0.172 ± 0.069
QWIQSKREDIVNQMTEACLNQSLDALLSRDLIMKEDYELVSTKPTRTSKVRQLLDTTDIQGEEFADVIVQKLKDNKQMGLQ	-0.401 ± 0.2
QWIQSKREDIVNQMTEACLNQSLDALLSRDLIMKEDYELVSTKPTRTSKVRQLLDTTDIQGEEFAEVIVQKLKDNKQMGLQ	0.096 ± 0.08
QWIQSKREDIVNQMTEACLNQSLDALLSRDLIMKEDYELVSTKPTRTSKVRQLLDTTDIQGEEFAFVIVQKLKDNKQMGLQ	-1.05 ± 0.47
QWIQSKREDIVNQMTEACLNQSLDALLSRDLIMKEDYELVSTKPTRTSKVRQLLDTTDIQGEEFAGVIVQKLKDNKQMGLQ	-0.182 ± 0.042
